Square brackets hold non-standard residues; d marks the D form. Ends that are not written are not given here.
molecular target: T1, mouse ADAMTS7 (Mus musculus, UniProt Q68SA9, E373Q); test: TMT10 TAILS N-terminomics, SMC2 experiment (process replicates, trypsin/AspN digest); assay type: cell-based; details: SMC2_TAILS HC; log fold change of N-terminal peptide, Ad-mADAMTS7 EQ over Luc
T1 construct: Full-length mouse Adamts7 1-1857 (Uniprot Q68SA9, WT or E373Q catalytic mutant); expressed in transfected cells; host or cells: Human Coronary Artery Smooth Muscle Cells (HCA-SMC, Lonza), adenovirus 50 MOI
T1 sequence (Q68SA9 221-1657 E373Q): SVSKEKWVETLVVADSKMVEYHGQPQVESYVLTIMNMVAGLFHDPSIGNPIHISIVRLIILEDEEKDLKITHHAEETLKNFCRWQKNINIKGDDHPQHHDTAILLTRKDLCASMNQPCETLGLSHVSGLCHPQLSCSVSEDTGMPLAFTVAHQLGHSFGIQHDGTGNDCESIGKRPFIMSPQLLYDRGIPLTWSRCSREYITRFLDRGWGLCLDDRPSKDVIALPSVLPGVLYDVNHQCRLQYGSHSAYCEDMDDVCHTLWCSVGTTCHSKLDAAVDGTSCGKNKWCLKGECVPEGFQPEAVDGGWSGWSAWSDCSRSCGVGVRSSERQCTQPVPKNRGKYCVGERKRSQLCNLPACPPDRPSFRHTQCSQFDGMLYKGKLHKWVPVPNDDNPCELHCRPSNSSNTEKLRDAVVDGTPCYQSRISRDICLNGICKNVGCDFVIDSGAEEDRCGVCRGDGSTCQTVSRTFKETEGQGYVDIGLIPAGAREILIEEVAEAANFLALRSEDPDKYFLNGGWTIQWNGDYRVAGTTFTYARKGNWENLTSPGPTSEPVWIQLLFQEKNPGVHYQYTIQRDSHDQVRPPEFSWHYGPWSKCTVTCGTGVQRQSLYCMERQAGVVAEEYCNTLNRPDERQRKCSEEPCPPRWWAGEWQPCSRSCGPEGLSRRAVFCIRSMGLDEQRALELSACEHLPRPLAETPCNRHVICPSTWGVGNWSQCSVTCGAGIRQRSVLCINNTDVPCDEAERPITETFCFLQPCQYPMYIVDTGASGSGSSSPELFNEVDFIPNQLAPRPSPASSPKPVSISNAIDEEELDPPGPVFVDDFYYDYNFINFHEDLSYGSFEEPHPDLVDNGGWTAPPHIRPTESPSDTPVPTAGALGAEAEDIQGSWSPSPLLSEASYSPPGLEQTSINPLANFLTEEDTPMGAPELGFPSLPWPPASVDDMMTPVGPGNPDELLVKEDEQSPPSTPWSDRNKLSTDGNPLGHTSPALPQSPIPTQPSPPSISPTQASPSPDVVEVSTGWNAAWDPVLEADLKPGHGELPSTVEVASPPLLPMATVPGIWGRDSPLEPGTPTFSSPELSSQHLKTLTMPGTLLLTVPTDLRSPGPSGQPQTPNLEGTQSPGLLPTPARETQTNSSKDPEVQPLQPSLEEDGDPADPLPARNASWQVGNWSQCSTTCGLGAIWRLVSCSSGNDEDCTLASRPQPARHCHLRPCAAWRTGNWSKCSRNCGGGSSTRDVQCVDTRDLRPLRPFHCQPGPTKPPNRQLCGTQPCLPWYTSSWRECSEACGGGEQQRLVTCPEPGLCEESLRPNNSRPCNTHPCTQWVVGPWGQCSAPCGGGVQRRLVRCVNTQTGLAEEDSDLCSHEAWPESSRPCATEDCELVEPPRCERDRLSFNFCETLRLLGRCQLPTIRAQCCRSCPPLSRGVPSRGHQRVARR
Procedure, shortened: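 Full-length mouse ADAMTS7 (WT or E373Q mutant, C-terminal 3xFLAG) or luciferase was transduced via adenovirus, 50 MOI, into HCA-SMC (SMC1, SMC2) or HUVEC. SMC1: pooled media, technical triplicates 400 ug; SMC2: process triplicates 300 ug; HUVEC: process triplicates 200 ug, bFGF2 10 ng/ml.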

logFC.mEQ.over.Luc | Substance
−0.72 | VCAN_3367 (FKNSSSAK; listed as Homo sapiens)

same assay, conditions: SMC2_TAILS HC; log fold change, mEQ over Luc

logFC.mEQ.over.Luc | Substance
−0.31 | ACTG1_105 (LTEAPLNPKANR; listed as Homo sapiens)
0.00 | ACTN4_5 (HAANQSYQYGPSSAGNGAGGGGSMG; listed as Homo sapiens)
−0.18 | ADAM9_74 (GKEHIIHLER; listed as Homo sapiens)
−0.29 | ADAM10_86 (FKVETSNKVL; listed as Homo sapiens)
4.60 | ADNP2_375 (SQPVGPVNK; listed as Homo sapiens)
0.05 | AMER2_654 (LAGTTIRATACH; listed as Homo sapiens)
0.11 | APLP2_452 (LVETHLAR; listed as Homo sapiens)
−0.07 | APOA1_86 (EQLGPVTQEFW; listed as Homo sapiens)
−0.06 | BMPER_43 (LTGSVAKCENEG; listed as Homo sapiens)
−0.01 | CALU_176 (FTAFLHPEEY; listed as Homo sapiens)
0.09 | CAP1_300 (FSAPKPQTSPSPKR; listed as Homo sapiens)
−0.11 | CCL2_28 (INAPVTCCYNFTNR; listed as Homo sapiens)
−0.62 | CEP192_728 (DKSTAGR; listed as Homo sapiens)
−0.08 | CTSB_109 (WAFGAVEAIS; listed as Homo sapiens)
0.03 | DBN1_434 (APVEPATA; listed as Homo sapiens)
−0.02 | DIS3L_75 (FPELKGIIFMQTACQAVQHQR; listed as Homo sapiens)
−0.02 | ECM1_38 (FQEVGYAAPPSPPLSR; listed as Homo sapiens)
−0.28 | ECM1_44 (AAPPSPPLSR; listed as Homo sapiens)
−0.22 | ECM1_108 (QEAVPLQK; listed as Homo sapiens)
−0.12 | EEF1G_23 (QYSGAQVR; listed as Homo sapiens)

logFC.mEQ.over.Luc | Substance
0.49 | EIF4B_426 (QTGTSTTSSR; listed as Homo sapiens)
0.20 | EMSY_943 (QTVVQVLAVK; listed as Homo sapiens)
−0.15 | FBLN2_665 (FSQVASNTIPLPLPQPNTCK; listed as Homo sapiens)
−1.45 | FLNA_689 (VNKPAEFTV; listed as Homo sapiens)
−0.06 | FLNC_2649 (FVGQKNSFTV; listed as Homo sapiens)
−0.09 | FN1_35 ([code q]MVQPQSPVAVSQSKPGCY; not fully specified (residue 2); listed as Homo sapiens)
−0.08 | FN1_99 (DKYTGNTYR; listed as Homo sapiens)
−0.07 | FN1_1693 (LQPTVEYVVSVYAQNPSG; listed as Homo sapiens)
−0.34 | FN1_1780 (LQGLRPGSEYTVSVVALH; listed as Homo sapiens)
0.71 | FN1_1805 (LIGTQSTAIPAPT; listed as Homo sapiens)
−0.19 | FN1_2113 (FVTHPGY; listed as Homo sapiens)
0.07 | FOXG1_235 (LNKCFVKVPRHY; listed as Homo sapiens)
0.25 | HEG1_51 (GLELQLER; listed as Homo sapiens)
0.29 | HEG1_224 (FQTKSGTAS; listed as Homo sapiens)
−0.14 | KCND1_436 (RLAKSGTTNAFLQYKQNGGLE; listed as Homo sapiens)
−0.34 | KRT28_2 (SLQFSNGSR; listed as Homo sapiens)
−0.14 | LASP1_182 (SYGGYKEPAAPVSIQR; listed as Homo sapiens)
−0.19 | LOXL1_157 (SVSASAFASTYR; listed as Homo sapiens)
−0.34 | LOX_60 (LGSQYQPQR; listed as Homo sapiens)
0.11 | LOX_125 (FQAGYSTSR; listed as Homo sapiens)

Substance | logFC.mEQ.over.Luc
FN1_607 (SSSGPVEVFIT; listed as Homo sapiens) | 0.45
FSTL_1290 (LQKHQETA; listed as Homo sapiens) | −0.28

same assay, conditions: log fold change, ADAMTS7 EQ over luciferase

logFC.mEQ.over.Luc | Substance
−0.19 | QSOX1_558 (VAAAPELAMGALELESR; listed as Homo sapiens)
−0.35 | SDC4_106 (LEENEVIPKR; listed as Homo sapiens)
−0.69 | SERPINH1_27 (AAAPGTAEKLSPKAATLAER; listed as Homo sapiens)
0.14 | SMOC1_35 (LISDRDPQCNLHCSR; listed as Homo sapiens)
0.36 | SPOCK1_126 (HWVGPSNLVK; listed as Homo sapiens)
−0.07 | SRGN_50 (LEEKGPMFELLPGESNKIPR; listed as Homo sapiens)
−0.13 | SRGN_51 (EEKGPMFELLPGESNKIPR; listed as Homo sapiens)
0.32 | SRGN_60 (LPGESNKIPR; listed as Homo sapiens)
−0.45 | SRGN_62 (GESNKIPR; listed as Homo sapiens)
−0.22 | STC1_37 (QNSAEVVR; listed as Homo sapiens)
−0.11 | STC2_239 (HGEAGHHLPEPSSR; listed as Homo sapiens)
−0.26 | STC2_244 (HHLPEPSSR; listed as Homo sapiens)
0.05 | TGFBI_24 (GPAKSPYQLVLQHSR; listed as Homo sapiens)
0.10 | TGFBI_43 ([code q]HGPNVCAVQKVIGTNR; not fully specified; listed as Homo sapiens)
0.33 | TGFBI_50 (AVQKVIGTNR; listed as Homo sapiens)
0.30 | TGFBI_208 (GIVTVNCAR; listed as Homo sapiens)
0.09 | TGFBI_276 (TLLAPT[code n]EAFEKIPSETLNR; not fully specified; listed as Homo sapiens)
0.14 | TGFBI_497 (VLTPPMGTVMDVLKGDNR; not fully specified (residue 6); listed as Homo sapiens)
0.18 | TGFBI_524 (SAGLTETLNR; listed as Homo sapiens)
0.09 | TGFBI_534 (EGVYTVFAPTNEAFR; listed as Homo sapiens)
1.03 | TG_1017 (GASALLR; listed as Homo sapiens)
−0.04 | THBS1_972 (QNDPNWVVR; listed as Homo sapiens)
−0.17 | TLN1_1501 (HTSALCNSCR; listed as Homo sapiens)
−0.30 | TMEM132A_52 (LLDAPEHFR; listed as Homo sapiens)
0.19 | VASN_138 (HIQPGAFDTLDR; listed as Homo sapiens)
−0.08 | VASP_229 (AIAGAKLR; listed as Homo sapiens)
